Data taken from patent publication US20200216522A1 (DENALI THERAPEUTICS, published 2020).

Key:
Peptide_050 = target: T1, Peptide_050 (human); assay: peptide array
T1 peptide: APVPMPDLKNVKSKI
Description: (§1) Chimeric IgG antibodies were diluted to a concentration of 5 μg/mL in 3% bovine serum albumin in Tris-buffered saline (10 mM Tris, pH 7.5, 150 mM NaCl) supplemented with 0.05% Tween®20 (3% BSA-TBST). Diluted antibodies were allowed to bind to peptides printed onto slides for 2 hours at room temperature as described in the PepStar™ user manual (JPT Technologies). Following extensive washing (5×5 minutes with TBST), slides were incubated with secondary antibodies goat anti-human IgG, Alexa Fluor 568 conjugate, 1 μg/mL in 3% BSA-TBST) for 1 hour at room temperature. After extensive washing, (5×5 minutes with TBST, then 5×5 minutes with ultrapure water), slides were dried overnight and imaged using an Opera Phenix™ system in the 568 nm channel. Images were aligned to peptide array definition files using Galviewer software obtained from JPT Technologies and ImageJ software with control human IgG serving as landmarks.
(§2) Full-length human Tau (encoded by the microtubule-associated protein Tau isoform 2 gene (MAPT), amino acid sequence NCBI Reference Sequence No. NP_005901.2, SEQ ID NO: 1, variant designation “2N4R”) was divided into 15 amino acid peptides, offset by 5 amino acids (overlapping by 10 amino acids). Peptides were synthesized and covalently attached to silica slides in triplicate with a spot size of 0.5 mm (obtained from JPT Technologies, Berlin, Germany). Antibodies muIgG were diluted to a concentration of 30 μg/mL in 3% bovine serum albumin in Tris-buffered saline (10 mM Tris, pH 7.5, 150 mM NaCl) supplemented with 0.05% Tween® 20 (3% BSA-TBST). Diluted antibodies were allowed to bind to peptides printed onto slides for 2 hours at room temperature as described in the Pepstar™ user manual (JPT Technologies). Following extensive washing (5×5 min TBST), slides were incubated with secondary antibodies (donkey anti-mouse IgG, Alexafluor 647 conjugate, 5 μg/mL in 3% BSA-TBST) for 1 hour at room temperature. After extensive washing, (5×5 minutes TBST, 5×5 minutes ultrapure water), slides were dried under a stream of nitrogen and imaged on the Opera Phenix in the 647 nm channel. Images were aligned to peptide array definition file using Galviewer software obtained from JPT Technologies and ImageJ software with control mouse IgG serving as landmarks.

Peptide_045 = target: T2, Peptide_045 (human); assay: peptide array
T2 peptide: REPKKVAVVRTPPKS
Description: as §1, §2

Peptide_083 = target: T3, Peptide_083 (human); assay: peptide array
T3 peptide: VSSTGSIDMVDSPQL
Description: as §1, §2

Peptide_084 = target: T4, Peptide_084 (human); assay: peptide array
T4 peptide: SIDMVDSPQLATLAD
Description: as §1, §2

Peptide_019 = target: T5, Peptide_019 (human); assay: peptide array
T5 peptide: AQPHTEIPEGTTAEE
Description: as §1, §2

Peptide_005 = target: T6, Peptide_005 (human); assay: peptide array
T6 peptide: GDRKDQGGYTMHQDQ
Description: as §1, §2

Peptide_053 = target: T7, Peptide_053 (human); assay: peptide array
T7 peptide: GSTENLKHQPGGGKV
Description: as §1, §2

Peptide_003 = target: T8, Peptide_003 (human); assay: peptide array
T8 peptide: MEDHAGTYGLGDRKD
Description: as §1, §2

Peptide_062 = target: T9, Peptide_062 (human); assay: peptide array
T9 peptide: VQIVYKPVDLSKVTS
Description: as §1, §2

Peptide_021 = target: T10, Peptide_021 (human); assay: peptide array
T10 peptide: TTAEEAGIGDTPSLE
Description: as §1, §2

Peptide_026 = target: T11, Peptide_026 (human); assay: peptide array
T11 peptide: RMVSKSKDGTGSDDK
Description: as §1, §2

Peptide_018 = target: T12, Peptide_018 (human); assay: peptide array
T12 peptide: GKQAAAQPHTEIPEG
Description: as §1, §2

Peptide_046 = target: T13, Peptide_046 (human); assay: peptide array
T13 peptide: VAVVRTPPKSPSSAK
Description: as §1, §2

Peptide_010 = target: T14, Peptide_010 (human); assay: peptide array
T14 peptide: SPLQTPTEDGSEEPG
Description: as §1, §2

Peptide_004 = target: T15, Peptide_004 (human); assay: peptide array
T15 peptide: GTYGLGDRKDQGGYT
Description: as §1, §2

Peptide_061 = target: T16, Peptide_061 (human); assay: peptide array
T16 peptide: PGGGSVQIVYKPVDL
Description: as §1, §2

Peptide_055 = target: T17, Peptide_055 (human); assay: peptide array
T17 peptide: GGGKVQIINKKLDLS
Description: as §1, §2

Peptide_076 = target: T18, Peptide_076 (human); assay: peptide array
T18 peptide: LTFRENAKAKTDHGA
Description: as §1, §2

Peptide_041 = target: T19, Peptide_041 (human); assay: peptide array
T19 peptide: GSPGTPGSRSRTPSL
Description: as §1, §2

Peptide_056 = target: T20, Peptide_056 (human); assay: peptide array
T20 peptide: QIINKKLDLSNVQSK
Description: as §1, §2

Peptide_024 = target: T21, Peptide_024 (human); assay: peptide array
T21 peptide: DEAAGHVTQARMVSK
Description: as §1, §2

Peptide_052 = target: T22, Peptide_052 (human); assay: peptide array
T22 peptide: VKSKIGSTENLKHQP
Description: as §1, §2

[1] = target: T23, full-length human Tau (Tau441; 2N4R), recombinant (human, UniProt P10636 1-758); assay: SPR Biacore, IgG captured, r-Tau injected
T23 construct: made in E. coli, His6-Smt3 tag removed; biotinylated through amines for Octet and phage work; also called r-Tau; recombinant Tau
Description: The affinity of chimeric IgG antibodies 1C7, 1A1, 1A5, 1D10, and 1G7 for recombinant Tau was determined by surface plasmon resonance using a Biacore™ T200 instrument. Biacore™ Series S CM5 sensor chips were immobilized with monoclonal mouse anti-human IgG (Fc) antibody (human antibody capture kit from GE Healthcare). 1 μg/mL of antibody was captured for 1 minute on each flow cell and serial 3-fold dilutions of recombinant Tau were injected at a flow rate of […]. Each sample was analyzed with a 3-minute association and a 10-minute dissociation. After each injection the chip was regenerated using 3M MgCl₂. Binding response was corrected by subtracting the RU from a flow cell capturing an irrelevant IgG at similar density. A 1:1 Languir model of simultaneous fitting of kₒₙ and koff was used for kinetics analysis.

T23 sequence (P10636 other isoform, or with tags, fused parts or gaps limits assumed): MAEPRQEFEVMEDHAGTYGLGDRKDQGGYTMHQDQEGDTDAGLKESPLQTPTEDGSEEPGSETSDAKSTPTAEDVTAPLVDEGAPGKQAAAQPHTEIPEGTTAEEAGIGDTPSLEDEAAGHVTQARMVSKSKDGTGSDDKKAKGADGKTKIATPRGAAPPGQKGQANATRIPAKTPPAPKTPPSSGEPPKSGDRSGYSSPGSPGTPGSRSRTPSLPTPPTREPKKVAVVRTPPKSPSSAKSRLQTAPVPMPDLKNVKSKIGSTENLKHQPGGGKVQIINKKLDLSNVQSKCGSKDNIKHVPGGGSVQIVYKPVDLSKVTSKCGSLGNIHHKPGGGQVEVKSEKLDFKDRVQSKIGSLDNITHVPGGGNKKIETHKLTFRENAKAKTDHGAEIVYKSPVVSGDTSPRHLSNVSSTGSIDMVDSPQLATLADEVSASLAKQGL

B1: murine anti-Tau hybridoma antibody 17G2.A1 (antibody, V domains shown)
VH: QVQLQQPGAELVGPGSSVKLSCKASGYTFINYWIDWMKQSPGQGLEWIGNIYPSDSESHYNQKFTDKATLTVDISSSTAYLQLSSLTSEDSAVYYCALYSKGYWGQGTSVTVSS
VL: DVLMTQTPLSLPVTLGDQASISCRSSQNIVHTNGNTYLEWYLQKPGQSPKLLIYKLSSRFSGVPDRFSGSGSGTDFTLKISRVEAEDLGVYYCFQGSHLPFTFGGGTKLEIKR
notes: mouse IgG from hybridoma; also called anti-Tau 17G2.A1
no binding (tested: 30 ug/mL): binding result (Peptide_050) | binding result (Peptide_045) | binding result (Peptide_083) | binding result (Peptide_084) | binding result (Peptide_019) | binding result (Peptide_005) | binding result (Peptide_053) | binding result (Peptide_003) | binding result (Peptide_062) | binding result (Peptide_021) | binding result (Peptide_026) | binding result (Peptide_018) | binding result (Peptide_046) | binding result (Peptide_010) | binding result (Peptide_004) | binding result (Peptide_061) | binding result (Peptide_055) | binding result (Peptide_076) | binding result (Peptide_041) | binding result (Peptide_056) | binding result (Peptide_024) | binding result (Peptide_052)

B2: chimeric IgG clone 1A1 (antibody, V domains shown)
VH: EVQLQQSGAELVRPGASVRLSCTASGFNIKDSLMHWLKQRPEQGLEWIGWIDPEDGETKYAPKFQDKATITADTSSNTAYLQLSSLTSEDTAIYYCTRRDWEGPWGQGTLVTVSA
VL: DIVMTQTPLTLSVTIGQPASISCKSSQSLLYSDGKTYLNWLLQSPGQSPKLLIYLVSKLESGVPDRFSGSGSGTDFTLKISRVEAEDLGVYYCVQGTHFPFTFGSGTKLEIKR
notes: mouse-human chimeric IgG from HEK293; also called anti-Tau 1A1; anti-Tau^1A1
no binding (tested: 5 ug/mL): binding result (Peptide_050) | binding result (Peptide_045) | binding result (Peptide_083) | binding result (Peptide_084) | binding result (Peptide_019) | binding result (Peptide_005) | binding result (Peptide_053) | binding result (Peptide_003) | binding result (Peptide_062) | binding result (Peptide_021) | binding result (Peptide_026) | binding result (Peptide_018) | binding result (Peptide_046) | binding result (Peptide_010) | binding result (Peptide_004) | binding result (Peptide_061) | binding result (Peptide_055) | binding result (Peptide_076) | binding result (Peptide_041) | binding result (Peptide_056) | binding result (Peptide_024)
binds: binding result (Peptide_052)
0.02 nM: Kd [1]
